Data: US20040115734A1 (VLAAMS INTERUNIVERSITAIR INSTITUUT VOOR BIOTECHNOLOGIE VZW, published 2004)

Experiments:
GST-PS1/1-81N [1] = target: T1, GST-PS1/1-81N (UniProt P49768 1-81); assay: GST pull-down of in vitro translated [35S]-labeled TLN constructs, autoradiogram
T1 construct: range 1-81; Lacks the first transmembrane domain of PS1; also called PS1 N-terminus fused to GST; GST-fused with the N-terminus of PS1; not shown: glutathione S-transferase (GST) encoded by vector pGEX4T-1 (Pharmacia Biotech)
Description: (§1) Part C. Total: autoradiogram of the translated, [³⁵S]-methionine labeled TLN constructs used for the binding reaction. Similar amounts of input material are used. Note the tendency of the intracellular domain (IC) to oligomerize.
(§2) Part D. Mapping of the binding domain of TLN. […] Radiolabeled translated products (Total) were assayed for binding to GST-PS1/39C (third panel), GST-PS1/1-81N (fourth panel) or GST alone (not shown). Binding becomes virtually abolished when the N-terminal 5 amino acids (Val⁸²⁹-Trp⁸³³) of the transmembrane region of TLN are deleted (construct 8 in top panel).

GST alone [2] = target: T2, GST alone (UniProt P08515 1-218 = GST); assay: as above
T2 construct: Negative control, immobilized on glutathione beads; also called GST-beads
Description: as §1, §2

GST-TLN/256C = target: T3, GST-TLN/256C (mouse, UniProt Q60625 662-917); assay: GST pull-down from 1% Triton-X100 or 2% CHAPS mouse brain extracts, western blot
T3 construct: Immobilized on glutathione beads; not shown: glutathione S-transferase (GST) encoded by vector pGEX4T-1 (Pharmacia Biotech)
T3 sequence (looked up): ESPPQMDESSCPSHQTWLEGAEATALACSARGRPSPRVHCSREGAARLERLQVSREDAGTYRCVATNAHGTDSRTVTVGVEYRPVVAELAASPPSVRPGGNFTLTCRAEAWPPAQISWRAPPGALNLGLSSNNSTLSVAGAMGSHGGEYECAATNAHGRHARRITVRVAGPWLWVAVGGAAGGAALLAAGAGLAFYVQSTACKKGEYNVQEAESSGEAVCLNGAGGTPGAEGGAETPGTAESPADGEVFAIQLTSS
Description: GST alone was used as a negative control. PS1-CTF was predominantly detected in the bound fraction of low salt 1% Triton-X100 brain extracts. […] The difference between the intensity of the bands is due to different affinities of the pabs as shown for the crude extract (“Total” in first lane). Binding was largely abolished at high salt concentrations (400 mM).
Murine cortices were homogenized in 250 mM sucrose containing 10 mM Tris-HCL pH 7.4, 1 mM EDTA (De Strooper et al., 1999). Nuclei and tissue fragments were removed by low speed centrifugation. Microsomal membranes pelleted by high-speed centrifugation (50K rpm, 1 hour) were resuspended in LSB containing 1% Triton X-100 or 2% CHAPS. Aliquots (1 mg/ml) of the cleared extracts (55K rpm, 1 hour) were incubated overnight (4° C.) with immobilized GST fusion proteins. Beads were washed in low salt extraction buffer containing 0.5% Triton X-100 and bound proteins were analyzed by SDS-PAGE and western blotting.

[3] = target: T4, TLN/256C clone of the pAD-GAL4 mouse hippocampal two-hybrid library (mouse, UniProt Q60625 662-917); assay: yeast two-hybrid screen, His+ selection and β-galactosidase filter lift
T4 sequence (looked up): T3 sequence (looked up)
Text: Endogenous TLN could be precipitated from Triton X-100 brain extracts using recombinant GST fusion proteins containing the 39 C-terminal residues of PS1 or PS2 (PS1/39C, FIG. 1, Part B). The binding was salt dependent (FIG. 1, Part C). […] We detected a weak signal for endogenous holo-APP only after long exposure (FIG. 1, Part D). […] Although the PS1-NTF/ CTF is Triton-X100 sensitive, minor amounts of PS1-NTF were also detected in precipitates of Triton-X100-extracted membranes. In the presence of 2% CHAPS however, both PS1-NTF and PS1-CTF were recovered on the beads as both fragments remain non-covalently bound under these conditions (Capell et al., 1998). […] Since CHAPS is less denaturing than TX100, it is possible that other proteins of the complex cause steric hindrance under these conditions (Capell et al., 1998).
Mouse hippocampal mRNA was used to generate a primary lambda library that was converted to a pAD-GAL4 plasmid library by in vivo mass excision (HybriZAP, Stratagene). The sequence coding for the C-terminal eight amino acids of PS1 was cloned into the pBD-GAL4 vector. Yeast was transformed simultaneously with the bait and the library plasmids using the lithium-acetate method (Gietz et al., 1995). His⁺ colonies were restreaked onto selection agar plates and assayed for lacZ gene expression by the β-galactosidase filter lift assay.

GST alone [4] = target: T2, GST alone; assay: GST pull-down of [35S]-labeled C-terminal APP-stubs expressed in neurons; data not shown
GST-PS1/1-81N [5] = target: T1, GST-PS1/1-81N; assay: GST pull-down of [35S]-labeled C-terminal APP-stubs expressed in neurons

T2 sequence (P08515 whole entry): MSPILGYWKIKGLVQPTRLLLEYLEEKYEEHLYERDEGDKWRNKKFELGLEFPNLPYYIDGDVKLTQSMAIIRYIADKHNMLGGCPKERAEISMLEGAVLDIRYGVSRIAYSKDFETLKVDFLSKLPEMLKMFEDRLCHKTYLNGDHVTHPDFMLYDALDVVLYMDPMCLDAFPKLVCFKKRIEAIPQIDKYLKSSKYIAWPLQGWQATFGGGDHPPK

B1: intracellular domain (IC) of TLN (in vitro translated) (other, mouse, UniProt Q60625 855-917, looked up)
chain: AFYVQSTACKKGEYNVQEAESSGEAVCLNGAGGTPGAEGGAETPGTAESPADGEVFAIQLTSS
notes: domain: intracellular domain (IC); also called IC domain of TLN
**Q.** Does B1 bind (GST-PS1/1-81N [1])?
**A.** Result: no binding

**Q.** Does B1 bind (GST alone [2])?
**A.** Result: no binding

B2: ductin (endogenous, mouse brain extract) (other, UniProt P63082 1-155, looked up)
chain: MADIKNNPEYSSFFGVMGASSAMVFSAMGAAYGTAKSGTGIAAMSVMRPELIMKSIIPVVMAGIIAIYGLVVAVLIANSLTDGITLYRSFLQLGAGLSVGLSGLAAGFAIGIVGDAGVRGTAQQPRLFVGMILILIFAEVLGLYGLIVALILSTK
**Q.** Does B2 bind (GST-TLN/256C)?
**A.** Result: no binding

B3: PS1-C8 bait (C-terminal eight amino acids of PS1 in pBD-GAL4) (other, UniProt P04386 1-147, looked up)
chain: MKLLSSIEQACDICRLKKLKCSKEKPKCAKCLKNNWECRYSPKTKRSPLTRAHLTEVESRLERLEQLFLLIFPREDLDMILKMDSLQDIKALLTGLFVQDNVNKDAVTDRLASVETDMPLTLRQHRISATSSSEESSNKGQRQLTVSLAFHQFYI
**Q.** Does B3 bind [3]?
**A.** Result: binds

B4: BAP31 (endogenous, mouse brain extract) (other, UniProt Q61335 2-245, looked up)
chain: SLQWTTVATFLYAEVFAVLLLCIPFISPKRWQKVFKSRLVELVVTYGNTFFVVLIVILVLLVIDAVREILKYDDVTEKVNLQNNPGAMEHFHMKLFRAQRNLYIAGFSLLLSFLLRRLVTLISQQATLLASNEAFKKQAESASEAAKKYMEENDQLKKGAAEDGDKLDIGNTEMKLEENKSLKNDLRKLKDELASTKKKLEKAENEALAMQKQSEGLTKEYDRLLEEHAKLQASVRGPSVKKEE
**Q.** Does B4 bind (GST-TLN/256C)?
**A.** Result: no binding

B5: APP-C59 (other, UniProt P05067 712-770, looked up)
chain: IATVIVITLVMLKKKQYTSIHHGVVEVDAAVTPEERHLSKMQQNGYENPTYKFFEQMQN
notes: domain: γ40-cleaved C-terminal fragment (APP-C59); also called γ40-cleaved cytoplasmic domain of APP
**Q.** What does the source list for B5?
**A.** binding result (GST alone [4]): no binding; binding result (GST-PS1/1-81N [5]): no binding
